What is called EC50 is the concentration giving half of the maximal effect. The term Kd denotes a measure of binding affinity in units of concentration.

This note sets out measurements from patent publication US20220119543A1 (INATHERYS, published 2022).

The target in test [1] is T1, Recombinant human TfR (R&D Systems, Catalog number 2474-TR) (human, UniProt P02786 89-760).
T1 construct: Bought recombinant protein; also called Histidin-tagged human TfR; TfR-His; not shown: histidine tag
The experiment in a line: ELISA, recombinant human TfR coated on plate. As for the experimental part:
For the determination of the specificity of the antibody an ELISA test may be applied using the following protocol. Recombinant human TfR (as obtained from R&D Systems, Catalog number 2474-TR) are directly coated on a 96 well plate overnight and washed twice before incubation with several dilutions (10) of the antibody (murine and humanized mAb) (dilution may start at the concentration of 50 μg/ml through 0,001 ug/ml) and incubate 1 hour at room temperature. After two washes a secondary antibody Goat-anti Human IgG is incubated Incubate 1 hour at room temperature in the dark, washed twice and incubated with the TMB solution for 10 minutes before reading the absorbance at 450 nm.
A general note: ELISA stands for enzyme-linked immunosorbent assay.

Test [2] has as its target T1, Recombinant human TfR (R&D Systems, …). The experiment in a line: SPR (Biacore), His-tagged human TfR captured on anti-Penta-His CM5 chip, antibody injected. The protocol:
Histidin-tagged human TfR (as obtained from R&D Systems, Catalog number 2474-TR) was bound after passage on covalently immobilized Penta-His mAb CM5 sensor chip. Ten different concentrations of antibody (1 to 500 nM) were injected across the anti-His/TfR-His surface for 4 minutes and the dissociation complexes was followed for 5 minutes. Both association and dissociation profiles are analyzed with a nonlinear square algorithm implemented in the BIAevalution software using single-exponential functions of time.
A general note: Surface plasmon resonance follows binding to a sensor surface in real time, without labels.

T1 sequence (P02786 89-760 limits assumed): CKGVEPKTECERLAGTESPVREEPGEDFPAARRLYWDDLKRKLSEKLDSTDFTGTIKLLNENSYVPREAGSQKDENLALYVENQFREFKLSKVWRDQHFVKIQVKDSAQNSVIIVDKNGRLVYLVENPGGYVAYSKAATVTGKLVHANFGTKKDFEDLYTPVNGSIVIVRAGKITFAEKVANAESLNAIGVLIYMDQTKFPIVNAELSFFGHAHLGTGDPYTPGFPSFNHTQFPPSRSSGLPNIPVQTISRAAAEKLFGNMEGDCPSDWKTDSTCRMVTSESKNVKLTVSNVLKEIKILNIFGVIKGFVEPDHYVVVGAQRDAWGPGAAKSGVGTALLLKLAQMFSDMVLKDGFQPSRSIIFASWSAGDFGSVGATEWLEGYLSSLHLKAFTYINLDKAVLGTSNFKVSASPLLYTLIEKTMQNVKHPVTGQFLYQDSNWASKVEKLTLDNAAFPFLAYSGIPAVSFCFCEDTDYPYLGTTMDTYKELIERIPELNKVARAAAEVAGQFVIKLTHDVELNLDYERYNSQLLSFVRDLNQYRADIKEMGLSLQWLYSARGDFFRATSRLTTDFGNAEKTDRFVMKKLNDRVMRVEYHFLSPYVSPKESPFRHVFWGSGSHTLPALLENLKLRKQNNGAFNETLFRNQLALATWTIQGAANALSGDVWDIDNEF

B1: mAb1 (antibody, human IgG4 S228P, kappa, V domains shown)
VH: QVQLVQSGPELKKPGASVKVSCKASGYTFTNQGMNWVKQAPGKGLKWMGWINTYTGEPINADDFKGRFVISLDTSASTAYLQISSLKAEDTAVYFCVREGWDSMDYWGQGTSVTVSS
VL: QIVLTQSPATLSVSPGERATLSCSASSSVNYMHWFQQKPGQSPRLLIYSTSNRATGIPARFSGSGSGTSYTLTISSLEPEDFAVYYCQQRSSYPLTFGQGTKLEIKR
notes: Humanized A24, human IgG4 isotype; also called VH4/VL4 with IgG4 Fc region
Turning to B1, in test [1], the EC50 amounted to 0.024 µg/mL. Moreover, in test [2], the Kd is 0.315 nM.
